# Test results published in publication PMC1847943 (Molecular Systems Biology, 2007).
# Target: the molecule itself
# Assay: native gel or EMSA
row,Protein,stoichiometry N
1,"KaiB (natural protein, Synechococcus elongatus PCC 7942, UniProt Q79PF5 1-102, looked up) MSPRKTYILKLYVAGNTPNSVRALKTLKNILEVEFQGVYALKVIDVLKNPQLAEEDKILATPTLAKVLPLPVRRIIGDLSDREKVLIGLDLLYGELQDSDDF",4
2,"KaiA (natural protein, Synechococcus elongatus PCC 7942, UniProt Q79PF6 1-284, looked up) MLSQIAICIWVESTAILQDCQRALSADRYQLQVCESGEMLLEYAQTHRDQIDCLILVAANPSFRAVVQQLCFEGVVVPAIVVGDRDSEDPDEPAKEQLYHSAELHLGIHQLEQLPYQVDAALAEFLRLAPVETMADHIMLMGANHDPELSSQQRDLAQRLQERLGYLGVYYKRDPDRFLRNLPAYESQKLHQAMQTSYREIVLSYFSPNSNLNQSIDNFVNMAFFADVPVTKVVEIHMELMDEFAKKLRVEGRSEDILLDYRLTLIDVIAHLCEMYRRSIPRET",2
3,"KaiC (natural protein, Synechococcus elongatus PCC 7942, UniProt Q79PF4 1-519, looked up, phosphorylation level changes over the incubation with KaiA, KaiB and ATP (autophosphorylation)) MTSAEMTSPNNNSEHQAIAKMRTMIEGFDDISHGGLPIGRSTLVSGTSGTGKTLFSIQFLYNGIIEFDEPGVFVTFEETPQDIIKNARSFGWDLAKLVDEGKLFILDASPDPEGQEVVGGFDLSALIERINYAIQKYRARRVSIDSVTSVFQQYDASSVVRRELFRLVARLKQIGATTVMTTERIEEYGPIARYGVEEFVSDNVVILRNVLEGERRRRTLEILKLRGTSHMKGEYPFTITDHGINIFPLGAMRLTQRSSNVRVSSGVVRLDEMCGGGFFKDSIILATGATGTGKTLLVSRFVENACANKERAILFAYEESRAQLLRNAYSWGMDFEEMERQNLLKIVCAYPESAGLEDHLQIIKSEINDFKPARIAIDSLSALARGVSNNAFRQFVIGVTGYAKQEEITGLFTNTSDQFMGAHSITDSHISTITDTIILLQYVEIRGEMSRAINVFKMRGSWHDKAIREFMISDKGPDIKDSFRNFERIISGSPTRITVDEKSELSRIVRGVQEKGPES",6
